Laboratory results from PMC4491233.

Target: GST-MSY3 phosphorylated in vitro by Akt (UniProt Q9JKB3)
Test: EMSA
Details: prior phosphorylation by Akt; binding reduced more than 50%; EMSA per earlier protocol (ref 16), 8% non-denaturing polyacrylamide gel; binding buffer, pH and temperature not given. Kinase pre-treatment: 10 mM MgCl2, 2 mM …

GST-MSY3 phosphorylated in vitro by Akt, sequence (Q9JKB3 whole entry): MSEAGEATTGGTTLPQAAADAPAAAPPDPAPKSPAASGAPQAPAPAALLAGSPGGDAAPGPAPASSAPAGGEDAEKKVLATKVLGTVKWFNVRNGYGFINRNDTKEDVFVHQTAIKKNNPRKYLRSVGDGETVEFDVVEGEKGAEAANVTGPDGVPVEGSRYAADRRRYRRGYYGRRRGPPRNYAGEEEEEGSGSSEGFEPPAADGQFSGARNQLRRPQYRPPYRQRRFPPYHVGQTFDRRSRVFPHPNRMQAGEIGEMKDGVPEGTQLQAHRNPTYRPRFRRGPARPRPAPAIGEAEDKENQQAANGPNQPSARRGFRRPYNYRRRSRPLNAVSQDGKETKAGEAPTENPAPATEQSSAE

In the case of “TCTTGATGTGCAGCAACAGCT (double strand) [MYOwt (myogHCE)]”, the binding signal (% of unphosphorylated GST-MSY3) was < 50.
